# Laboratory results reported in IntAct's records for PubMed 11018022.
# B1: Insulin receptor substrate 1 (Rattus norvegicus (Rat)), P35570 (parent)
# chain: MASPPDTDGFSDVRKVGYLRKPKSMHKRFFVLRAASEAGGPARLEYYENEKKWRHKSSAPKRSIPLESCFNINKRADSKNKHLVALYTRDEHFAIAADSEAEQDSWYQALLQLHNRAKAHHDGAGGGCGGSCSGSSGVGEAGEDLSYDTGPGPAFKEVWQVILKPKGLGQTKNLIGIYRLCLTSKTISFVKLNSEAAAVVLQLMNIRRCGHSENFFFIEVGRSAVTGPGEFWMQVDDSVVAQNMHETILEAMRAMSDEFRPRTKSQSSSSCSNPISVPLRRHHLNNPPPSQVGLTRRSRTESITATSPASMVGGKPGSFRVRASSDGEGTMSRPASVDGSPVSPSTNRTHAHRHRGSSRLHPPLNHSRSIPMPSSRCSPSATSPVSLSSSSTSGHGSTSDCLFPRRSSASVSGSPSDGGFISSDEYGSSPCDFRSSFRSVTPDSLGHTPPARGEEELSNYICMGGKGASTLTAPNGHYILSRGGNGHRYIPGATMGTSPALTGDEAAGAADLDNRFRKRTHSAGTSPTISHQKTPSQSSVVSIEEYTEMMPAAYPPGGGSGGRLPGYRHSAFVPTHSYPEEGLEMHHLERRGGHHRPDSSNLHTDDGYMPMSPGVAPVPSNRKGNGDYMPMSPKSVSAPQQIINPIRRHPQRVDPNGYMMMSPSGSCSPDIGGGSCSSSSISAAPSGSSYGKPWTNGVGGHHTHALPHAKPPVESGGGKLLPCTGDYMNMSPVGDSNTSSPSECYYGPEDPQHKPVLSYYSLPRSFKHTQRPGEPEEGARHQHLRLSSSSGRLRYTATAEDSSSSTSSDSLGGGYCGARPESSVTHPHHHALQPHLPRKVDTAAQTNSRLARPTRLSLGDPKASTLPRVREQQQQQQQQQQSSLHPPEPKSPGEYVNIEFGSGQPGYLAGPATSRSSPSVRCLPQLHPAPREETGSEEYMNMDLGPGRRATWQESGGVELGRVGPAPPGAASICRPTRSVPNSRGDYMTMQIGCPRQSYVDTSPVAPVSYADMRTGIAAEKVSLPRTTGAAPPPSSTASASASVTPQGAAEQAAHSSLLGGPQGPGGMSAFTRVNLSPNHNQSAKVIRADTQGCRRRHSSETFSAPTRAANTVSFGAGAAGGGSGGGSEDVKRHSSASFENVWLRPGDLGGASKESAPGCGAAGGLEKSLNYIDLDLVKDVKQHPQDCPSQQQSLPPPPPHQPLGSNEGSSPRRSSEDLSTYASINFQKQPEDRQ
# Variants of: B1
# Conditions: with phip_mouse Phip
row,Variant,effect of a mutation on the interaction
1,W106A,disrupting interaction
